Results as given in patent publication US20130177981A1 (WISCONSIN ALUMNI RESEARCH FOUNDATION, published 2013).
Read-outs that look alike come from different tables or passages of the source. [ ]: non-standard residue; d: D form. APC = trans-3-aminopyrrolidine-4-carboxylic acid; ACPC = trans-2-aminocyclopentanecarboxylic acid; β3hT = C[C@@H](O)[C@H](N)CC(=O)O; β3hE = N[C@@H](CCC(=O)O)CC(=O)O

Legend:
gp41-5 [1] = molecular target: T1, gp41-5 (HIV); test: competition FP; displacement of Flu-C38 from gp41-5
T1 construct: also called gp41-5 protein construct; five-helix bundle protein

gp41-5 [2] = molecular target: T1, gp41-5; test: as above; remark: listed apart in the source

Binder | Ki (gp41-5 [1]) [nM] | Ki (gp41-5 [2]) [nM]
Ac-TTWEAWDRAIAEYA[ACPC]RIE[ACPC]LI[APC]AAQ[β3hE]QQ[β3hE]KNE[ACPC]AL[APC]EL-NH2 (not fully specified, Made from 7 by replacing two β3-hArg residues with APC) [chimeric CHR α/β-peptide 8] | 0.3 | –
Ac-[β3hT]TWE[ACPC]WD[APC]AIA[β3hE]YAARIEALIRAAQ[β3hE]QQ[β3hE]KNE[ACPC]AL[APC]EL-NH2 (not fully specified, also called compound 14) [chimeric α+α/β foldamer 14] | – | 1.4
Ac-TTWEAWDRAIA[β3hE]YA[ACPC]RIE[ACPC]LI[APC]AAQ[β3hE]QQ[β3hE]KNE[ACPC]AL[APC]EL-NH2 (not fully specified, the difference must lie in β3-residues whose bold type is lost; also called compound 13; peptide 13) [chimeric α+α/β foldamer 13] | – | 0.8
Ac-[β3hT]TWE[ACPC]WD[APC]AIA[β3hE]YA[ACPC]RIE[ACPC]LI[APC]AAQEQQEKNEAALREL-NH2 (not fully specified, also called compound 15) [chimeric α+α/β foldamer 15] | – | 0.2
Ac-TTWEAWD[APC]AIA[β3hE]YA[ACPC]RIE[ACPC]LI[APC]AAQ[β3hE]QQ[β3hE]KNE[ACPC]AL[APC]EL-NH2 (not fully specified, also called compound 12; peptide 12) [chimeric α+α/β foldamer 12] | – | 8
